From patent publication US20060257938A1, “Method of screening for drugs that block ligand binding to a lipid binding protein” (priority 2005, published 2006)
Where a chain is given by its changes, count along the chain named. Several values for one entry are separate records, joined by “and”; a condition that tells them apart may be missing. Equal values may be shown once.

B1: 62H, 72A (protein, listed as Rattus norvegicus)
chain: AFDGTWKVDRNENYEKFMEKMGINVVKRKLGAHDNLKLTITQEGNKFTVKESSNFRNIDVVHELGVDFAYSAADGTELTGTWTMEGNKLVGKFKRVDNGKELIAVREISGNELIQTYTYEGVEAKRIFKKE
modifications: PEPTIDE (1)...(131) wild-type rat intestinal fatty acid binding protein
B2: 72C (protein, listed as Rattus norvegicus)
chain: B1 chain with H62F, A72C
modifications: PEPTIDE (1)...(131) wild-type rat intestinal fatty acid binding protein
B3: 104D1, 72A (protein, listed as Rattus norvegicus)
chain: B1 chain with H62F, A104D
modifications: PEPTIDE (1)...(131) wild-type rat intestinal fatty acid binding protein
B4: 68D, 72A (protein, listed as Rattus norvegicus)
chain: B1 chain with H62F, F68D
modifications: PEPTIDE (1)...(131) wild-type rat intestinal fatty acid binding protein
B5: 62I, 72A (protein, listed as Rattus norvegicus)
chain: B1 chain with H62I
modifications: PEPTIDE (1)...(131) wild-type rat intestinal fatty acid binding protein
B6: 62N, 72A (protein, listed as Rattus norvegicus)
chain: B1 chain with H62N
modifications: PEPTIDE (1)...(131) wild-type rat intestinal fatty acid binding protein
B7: 102Y, 72A (protein, listed as Rattus norvegicus)
chain: B1 chain with H62F, L102Y
modifications: PEPTIDE (1)...(131) wild-type rat intestinal fatty acid binding protein
B8: 70M, 72A (protein, listed as Rattus norvegicus)
chain: B1 chain with H62F, Y70M
modifications: PEPTIDE (1)...(131) wild-type rat intestinal fatty acid binding protein
B9: 68V, 72A (protein, listed as Rattus norvegicus)
chain: B1 chain with H62F, F68V
modifications: PEPTIDE (1)...(131) wild-type rat intestinal fatty acid binding protein
B10: 68Q, 72A (protein, listed as Rattus norvegicus)
chain: B1 chain with H62F, F68Q
modifications: PEPTIDE (1)...(131) wild-type rat intestinal fatty acid binding protein
B11: 68N, 72A (protein, listed as Rattus norvegicus)
chain: B1 chain with H62F, F68N
modifications: PEPTIDE (1)...(131) wild-type rat intestinal fatty acid binding protein
B12: 68L, 72A (protein, listed as Rattus norvegicus)
chain: B1 chain with H62F, F68L
modifications: PEPTIDE (1)...(131) wild-type rat intestinal fatty acid binding protein
B13: 68Y, 72A (protein, listed as Rattus norvegicus)
chain: B1 chain with H62F, F68Y
modifications: PEPTIDE (1)...(131) wild-type rat intestinal fatty acid binding protein
B14: 62T, 72A (protein, listed as Rattus norvegicus)
chain: B1 chain with H62T
modifications: PEPTIDE (1)...(131) wild-type rat intestinal fatty acid binding protein
B15: 68C, 72A (protein, listed as Rattus norvegicus)
chain: B1 chain with H62F, F68C
modifications: PEPTIDE (1)...(131) wild-type rat intestinal fatty acid binding protein
B16: 68S, 72A (protein, listed as Rattus norvegicus)
chain: B1 chain with H62F, F68S
modifications: PEPTIDE (1)...(131) wild-type rat intestinal fatty acid binding protein
B17: 68E, 72A (protein, listed as Rattus norvegicus)
chain: B1 chain with H62F, F68E
modifications: PEPTIDE (1)...(131) wild-type rat intestinal fatty acid binding protein
B18: 70C, 72A (protein, listed as Rattus norvegicus)
chain: B1 chain with H62F, Y70C
modifications: PEPTIDE (1)...(131) wild-type rat intestinal fatty acid binding protein
B19: 68G, 72A (protein, listed as Rattus norvegicus)
chain: B1 chain with H62F, F68G
modifications: PEPTIDE (1)...(131) wild-type rat intestinal fatty acid binding protein
B20: 68M, 72A (protein, listed as Rattus norvegicus)
chain: B1 chain with H62F, F68M
modifications: PEPTIDE (1)...(131) wild-type rat intestinal fatty acid binding protein
B21: 68A, 72A (protein, listed as Rattus norvegicus)
chain: B1 chain with H62F, F68A
modifications: PEPTIDE (1)...(131) wild-type rat intestinal fatty acid binding protein
B22: 68I, 72A (protein, listed as Rattus norvegicus)
chain: B1 chain with H62F, F68I
modifications: PEPTIDE (1)...(131) wild-type rat intestinal fatty acid binding protein
B23: 68T, 72A (protein, listed as Rattus norvegicus)
chain: B1 chain with H62F, F68T
modifications: PEPTIDE (1)...(131) wild-type rat intestinal fatty acid binding protein

Test: Probe fluorescence ratio response to linoleic acid relative to ADIFAB2
Type: binding
Details: response relative to ADIFAB2
Procedure, shortened: (§1)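 Fluorescently labeled rat intestinal FABP variants were read at two emission wavelengths, near the unbound maximum (about 420 to 480 nm) and the FFA-bound maximum (about 495 to 580 nm). R = Fλ1/Fλ2 after subtracting probe-free intensity; ΔR = R+agent − R0, normalized to ADIFAB2 (rI-FABP-L72A).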
With B1 the “DR/DR LA” value was 1.40. In the case of B2, the “DR/DR LA” value is reported as 0.25. In the case of B3, the “DR/DR LA” value is reported as 0.71. For B4, the “DR/DR LA” value was 1.23. In the case of B5, the “DR/DR LA” value is reported as 1.36. With B6 the “DR/DR LA” value was 1.34. With B7 the “DR/DR LA” value was 0.82 and 0.818. In the case of B8, the “DR/DR LA” value is reported as 0.39. For B9, the “DR/DR LA” value was 0.23. With B10 the “DR/DR LA” value was 0.43. With B11 the “DR/DR LA” value was 0.67. In the case of B12, the “DR/DR LA” value is reported as 0.53. For B13, the “DR/DR LA” value was 0.36. With B14 the “DR/DR LA” value was 1.02. With B15 the “DR/DR LA” value was 0.12. In the case of B16, the “DR/DR LA” value is reported as 0.14. In the case of B17, the “DR/DR LA” value is reported as 0.96. For B18, the “DR/DR LA” value was 0.27. With B19 the “DR/DR LA” value was 0.17. In the case of B20, the “DR/DR LA” value is reported as 0.34. With B21 the “DR/DR LA” value was 0.18. For B22, the “DR/DR LA” value was 0.37. In the case of B23, the “DR/DR LA” value is reported as 0.11.

Test: Probe fluorescence ratio response to linolenic acid relative to ADIFAB2
Type: binding
Details: response relative to ADIFAB2
Procedure, shortened: as §1
With B1 the “DR/DR LNA” value was 1.44. In the case of B2, the “DR/DR LNA” value is reported as 0.17. With B3 the “DR/DR LNA” value was 0.67. In the case of B4, the “DR/DR LNA” value is reported as 1.23. In the case of B5, the “DR/DR LNA” value is reported as 1.38. With B6 the “DR/DR LNA” value was 1.40. For B7, the “DR/DR LNA” value was 0.73 and 0.732. For B8, the “DR/DR LNA” value was 0.53. For B9, the “DR/DR LNA” value was 0.22. With B10 the “DR/DR LNA” value was 0.38. With B11 the “DR/DR LNA” value was 0.60. With B12 the “DR/DR LNA” value was 0.52. In the case of B13, the “DR/DR LNA” value is reported as 0.41. In the case of B14, the “DR/DR LNA” value is reported as 0.96. With B15 the “DR/DR LNA” value was 0.25. For B16, the “DR/DR LNA” value was 0.14. With B17 the “DR/DR LNA” value was 0.92. For B18, the “DR/DR LNA” value was 0.24. In the case of B19, the “DR/DR LNA” value is reported as 0.18. With B20 the “DR/DR LNA” value was 0.35. For B21, the “DR/DR LNA” value was 0.19. For B22, the “DR/DR LNA” value was 0.36. With B23 the “DR/DR LNA” value was 0.12.

Test: Probe fluorescence ratio response to oleic acid relative to ADIFAB2
Type: binding
Details: response relative to ADIFAB2
Procedure, shortened: as §1
For B1, the “DR/DR OA” value was 1.40. In the case of B2, the “DR/DR OA” value is reported as 0.20. With B3 the “DR/DR OA” value was 0.64. In the case of B4, the “DR/DR OA” value is reported as 1.13. With B5 the “DR/DR OA” value was 1.37. In the case of B6, the “DR/DR OA” value is reported as 1.37. In the case of B7, the “DR/DR OA” value is reported as 0.86. For B8, the “DR/DR OA” value was 0.42. For B9, the “DR/DR OA” value was 0.25. For B10, the “DR/DR OA” value was 0.45. With B11 the “DR/DR OA” value was 0.63. For B12, the “DR/DR OA” value was 0.55 and 0.547. For B13, the “DR/DR OA” value was 0.46. For B14, the “DR/DR OA” value was 1.00. For B15, the “DR/DR OA” value was 0.29. For B16, the “DR/DR OA” value was 0.14. With B17 the “DR/DR OA” value was 0.91. For B18, the “DR/DR OA” value was 0.24. In the case of B19, the “DR/DR OA” value is reported as 0.21. For B20, the “DR/DR OA” value was 0.35. In the case of B21, the “DR/DR OA” value is reported as 0.19. For B22, the “DR/DR OA” value was 0.39. With B23 the “DR/DR OA” value was 0.13.

Test: Probe fluorescence ratio response to palmitic acid relative to ADIFAB2
Type: binding
Details: response relative to ADIFAB2
Procedure, shortened: as §1
For B1, the “DR/DR PA” value was 1.24. With B2 the “DR/DR PA” value was 0.12. In the case of B3, the “DR/DR PA” value is reported as 0.34. In the case of B4, the “DR/DR PA” value is reported as 0.52. With B5 the “DR/DR PA” value was 1.27. In the case of B6, the “DR/DR PA” value is reported as 1.29. For B7, the “DR/DR PA” value was 0.39 and 0.387. In the case of B8, the “DR/DR PA” value is reported as 0.26. For B9, the “DR/DR PA” value was 0.19. For B10, the “DR/DR PA” value was 0.28. With B11 the “DR/DR PA” value was 0.35. In the case of B12, the “DR/DR PA” value is reported as 0.52 and 0.524. For B13, the “DR/DR PA” value was 0.35. In the case of B14, the “DR/DR PA” value is reported as 0.65. In the case of B15, the “DR/DR PA” value is reported as 0.13. In the case of B16, the “DR/DR PA” value is reported as 0.10. For B17, the “DR/DR PA” value was 0.53. With B18 the “DR/DR PA” value was 0.14. In the case of B19, the “DR/DR PA” value is reported as 0.12. With B20 the “DR/DR PA” value was 0.33. With B21 the “DR/DR PA” value was 0.13. In the case of B22, the “DR/DR PA” value is reported as 0.35. In the case of B23, the “DR/DR PA” value is reported as 0.10.

Test: Probe fluorescence ratio response to arachidonic acid relative to ADIFAB2
Type: binding
Details: Arachidonic acid; response relative to ADIFAB2
Procedure, shortened: as §1
For B1, the “DR/DR AA” value was 1.42. In the case of B2, the “DR/DR AA” value is reported as 0.14. For B4, the “DR/DR AA” value was 1.24. In the case of B5, the “DR/DR AA” value is reported as 1.40. With B6 the “DR/DR AA” value was 1.40. In the case of B8, the “DR/DR AA” value is reported as 0.34. For B9, the “DR/DR AA” value was 0.29. In the case of B10, the “DR/DR AA” value is reported as 0.47. For B11, the “DR/DR AA” value was 0.67. For B12, the “DR/DR AA” value was 0.66. For B13, the “DR/DR AA” value was 0.42. With B14 the “DR/DR AA” value was 0.99. With B15 the “DR/DR AA” value was 0.18. In the case of B16, the “DR/DR AA” value is reported as 0.20. In the case of B17, the “DR/DR AA” value is reported as 0.89. With B18 the “DR/DR AA” value was 0.23. With B19 the “DR/DR AA” value was 0.24. With B20 the “DR/DR AA” value was 0.52. For B21, the “DR/DR AA” value was 0.23. In the case of B22, the “DR/DR AA” value is reported as 0.42. In the case of B23, the “DR/DR AA” value is reported as 0.18.

Same assay, conditions: arachidonic acid; response relative to ADIFAB2
With B3 the “DR/DR AA” value was 0.48. With B7 the “DR/DR AA” value was 0.72 and 0.718. In the case of B12, the “DR/DR AA” value is reported as 0.658.
